In PMC10397247:
Blank lines part the entries; values can stand above or below the binder they belong to.

How the values were obtained:
4H2608-AA = target: T1, 4H2608-AA; test: two-hybrid library CCmax; conditions: mean of both orientations;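 note: natural log of median RNA to DNA barcode read ratio; higher means stronger binding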
T1 chain: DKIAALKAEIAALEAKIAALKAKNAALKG

4H3605-AA = target: T2, 4H3605-AA; test: two-hybrid library CCmax; conditions: mean of both orientations;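 note: natural log of median RNA to DNA barcode read ratio; higher means stronger binding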
T2 chain: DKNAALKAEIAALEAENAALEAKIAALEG

4H1350-AA = target: T3, 4H1350-AA; test: two-hybrid library CCmax; conditions: mean of both orientations;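 note: natural log of median RNA to DNA barcode read ratio; higher means stronger binding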
T3 chain: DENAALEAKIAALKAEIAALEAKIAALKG

4H2614-AA = target: T4, 4H2614-AA; test: two-hybrid library CCmax; conditions: mean of both orientations;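 note: natural log of median RNA to DNA barcode read ratio; higher means stronger binding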
T4 chain: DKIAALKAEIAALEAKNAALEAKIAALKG

4H1405-AA = target: T5, 4H1405-AA; test: two-hybrid library CCmax; conditions: mean of both orientations;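 note: natural log of median RNA to DNA barcode read ratio; higher means stronger binding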
T5 chain: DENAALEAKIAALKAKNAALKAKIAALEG

4H1198-AA = target: T6, 4H1198-AA; test: two-hybrid library CCmax;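 note: natural log of median RNA to DNA barcode read ratio; higher means stronger binding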
T6 chain: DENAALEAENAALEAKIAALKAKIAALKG

4H341-AA = target: T7, 4H341-AA; test: two-hybrid library CCmax
T7 chain: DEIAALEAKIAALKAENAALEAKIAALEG

4H3664-AA = target: T8, 4H3664-AA; test: two-hybrid library CCmax; conditions: mean of both orientations
T8 chain: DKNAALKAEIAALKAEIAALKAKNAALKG

4H3922-AA = target: T9, 4H3922-AA; test: two-hybrid library CCmax; conditions: mean of both orientations
T9 chain: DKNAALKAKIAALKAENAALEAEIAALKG

4H2238-AA = target: T10, 4H2238-AA; test: two-hybrid library CCmax; conditions: mean of both orientations
T10 chain: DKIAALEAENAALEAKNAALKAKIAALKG

4H2935-AA = target: T11, 4H2935-AA; test: two-hybrid library CCmax; conditions: mean of both orientations
T11 chain: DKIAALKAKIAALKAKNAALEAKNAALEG

4H3625-AA = target: T12, 4H3625-AA; test: two-hybrid library CCmax; conditions: mean of both orientations
T12 chain: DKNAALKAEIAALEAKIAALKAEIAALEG

4H4033-AA = target: T13, 4H4033-AA; test: two-hybrid library CCmax; conditions: mean of both orientations
T13 chain: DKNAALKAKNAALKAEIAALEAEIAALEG

4H2211-AA = target: T14, 4H2211-AA; test: two-hybrid library CCmax; conditions: mean of both orientations
T14 chain: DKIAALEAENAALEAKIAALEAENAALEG

4H481-AA = target: T15, 4H481-AA; test: two-hybrid library CCmax; conditions: mean of both orientations
T15 chain: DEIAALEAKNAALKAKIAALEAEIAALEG

4H369-AA = target: T16, 4H369-AA; test: two-hybrid library CCmax
T16 chain: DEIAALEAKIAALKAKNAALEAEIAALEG

4H2726-AA = target: T17, 4H2726-AA; test: two-hybrid library CCmax; conditions: mean of both orientations
T17 chain: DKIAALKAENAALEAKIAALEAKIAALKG

4H55-AA = target: T18, 4H55-AA; test: two-hybrid library CCmax; conditions: mean of both orientations
T18 chain: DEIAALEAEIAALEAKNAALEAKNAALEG

4H327-AA = target: T19, 4H327-AA; test: two-hybrid library CCmax; conditions: mean of both orientations
T19 chain: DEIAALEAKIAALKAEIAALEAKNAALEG

4H2513-AA = target: T20, 4H2513-AA; test: two-hybrid library CCmax; conditions: mean of both orientations
T20 chain: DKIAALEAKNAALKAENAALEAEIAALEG

4H2536-AA = target: T21, 4H2536-AA; test: two-hybrid library CCmax; conditions: mean of both orientations
T21 chain: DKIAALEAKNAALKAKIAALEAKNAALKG

4H662-AA = target: T22, 4H662-AA; test: two-hybrid library CCmax; conditions: mean of both orientations
T22 chain: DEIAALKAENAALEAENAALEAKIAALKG

4H796-bH = target: T23, 4H796-bH; test: two-hybrid library CCNG1
T23 chain: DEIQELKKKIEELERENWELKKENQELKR

P7A-bP = target: T24, P7A-bP; test: two-hybrid library CCNG1
T24 chain: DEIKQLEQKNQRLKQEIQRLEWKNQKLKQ

4H2859-bH = target: T25, 4H2859-bH; test: two-hybrid library CCNG1
T25 chain: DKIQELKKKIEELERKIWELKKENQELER

4H730-bH = target: T26, 4H730-bH; test: two-hybrid library CCNG1
T26 chain: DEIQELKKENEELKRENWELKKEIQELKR

4H3297-bH = target: T27, 4H3297-bH; test: two-hybrid library CCNG1
T27 chain: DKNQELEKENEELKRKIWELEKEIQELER

4H2444-bH = target: T28, 4H2444-bH; test: two-hybrid library CCNG1
T28 chain: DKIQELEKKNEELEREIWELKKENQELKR

4H3041-bH = target: T29, 4H3041-bH; test: two-hybrid library CCNG1
T29 chain: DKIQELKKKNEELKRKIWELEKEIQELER

4H949-bH = target: T30, 4H949-bH; test: two-hybrid library CCNG1
T30 chain: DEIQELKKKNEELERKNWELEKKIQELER

4H3364-bH = target: T31, 4H3364-bH; test: two-hybrid library CCNG1
T31 chain: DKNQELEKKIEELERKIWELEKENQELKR

4H349-bH = target: T32, 4H349-bH; test: two-hybrid library CCNG1
T32 chain: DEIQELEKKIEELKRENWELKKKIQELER

4H932-bH = target: T33, 4H932-bH; test: two-hybrid library CCNG1
T33 chain: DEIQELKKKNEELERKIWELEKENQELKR

4H3381-bH = target: T34, 4H3381-bH; test: two-hybrid library CCNG1
T34 chain: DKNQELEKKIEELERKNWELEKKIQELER

4H2253-bH = target: T35, 4H2253-bH; test: two-hybrid library CCNG1
T35 chain: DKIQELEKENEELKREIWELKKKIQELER

P12A-bP = target: T36, P12A-bP; test: two-hybrid library CCNG1
T36 chain: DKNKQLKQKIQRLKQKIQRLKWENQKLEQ

4H235-bH = target: T37, 4H235-bH; test: two-hybrid library CCNG1
T37 chain: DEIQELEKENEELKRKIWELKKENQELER

4H264-bH = target: T38, 4H264-bH; test: two-hybrid library CCNG1
T38 chain: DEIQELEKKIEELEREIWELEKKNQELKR

4H2931-bH = target: T39, 4H2931-bH; test: two-hybrid library CCNG1
T39 chain: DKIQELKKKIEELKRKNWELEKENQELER

4H2585-bH = target: T40, 4H2585-bH; test: two-hybrid library CCNG1
T40 chain: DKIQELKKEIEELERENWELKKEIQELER

4H2518-bH = target: T41, 4H2518-bH; test: two-hybrid library CCNG1
T41 chain: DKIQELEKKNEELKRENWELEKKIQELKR

4H2760-bH = target: T42, 4H2760-bH; test: two-hybrid library CCNG1
T42 chain: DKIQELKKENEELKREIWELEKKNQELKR

4H56-bH = target: T43, 4H56-bH; test: two-hybrid library CCNG1
T43 chain: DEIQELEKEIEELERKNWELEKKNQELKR

interaction score (4H2608-AA): 0.869
interaction score (4H3605-AA): 0.0472
interaction score (4H1350-AA): 0.496
interaction score (4H2614-AA): -0.463
interaction score (4H1405-AA): -0.758
interaction score (4H1198-AA): -0.611
interaction score (4H341-AA): -2.13
interaction score (4H3664-AA): 1.22
interaction score (4H3922-AA): 0.661
interaction score (4H2238-AA): -0.785
interaction score (4H2935-AA): -1.5
interaction score (4H3625-AA): -0.0176
interaction score (4H4033-AA): 2.18
interaction score (4H2211-AA): -1.3
interaction score (4H481-AA): 1.9
interaction score (4H369-AA): -1.45
interaction score (4H2726-AA): -0.438
interaction score (4H55-AA): -0.467
interaction score (4H327-AA): -0.574
interaction score (4H2513-AA): 1.14
interaction score (4H2536-AA): -0.886
interaction score (4H662-AA): -1.15
Binder: DENAALEAENAALEAKIAALKAKIAALKG [4H1198-AA]

interaction score (4H796-bH): -0.124
interaction score (P7A-bP): -1.72
interaction score (4H2859-bH): 0.651
interaction score (4H730-bH): -0.37
interaction score (4H3297-bH): 0.617
interaction score (4H2444-bH): -0.045
interaction score (4H3041-bH): 0.872
interaction score (4H949-bH): -0.427
interaction score (4H3364-bH): 0.0509
interaction score (4H349-bH): -0.0717
interaction score (4H932-bH): -0.937
interaction score (4H3381-bH): 0.131
interaction score (4H2253-bH): 0.888
interaction score (P12A-bP): -0.712
interaction score (4H235-bH): 0.172
interaction score (4H264-bH): 0.653
interaction score (4H2931-bH): -0.195
interaction score (4H2585-bH): -1.52
interaction score (4H2518-bH): 0.157
interaction score (4H2760-bH): 0.899
interaction score (4H56-bH): -2.53
Binder: DKIQELEKENEELKREIWELKKKIQELER [4H2253-bH]
